Target: DyLight488-METTL14 (UniProt Q9HCE5)
Assay: MST

Sequence of UniProt Q9HCE5 (Q9HCE5 whole entry): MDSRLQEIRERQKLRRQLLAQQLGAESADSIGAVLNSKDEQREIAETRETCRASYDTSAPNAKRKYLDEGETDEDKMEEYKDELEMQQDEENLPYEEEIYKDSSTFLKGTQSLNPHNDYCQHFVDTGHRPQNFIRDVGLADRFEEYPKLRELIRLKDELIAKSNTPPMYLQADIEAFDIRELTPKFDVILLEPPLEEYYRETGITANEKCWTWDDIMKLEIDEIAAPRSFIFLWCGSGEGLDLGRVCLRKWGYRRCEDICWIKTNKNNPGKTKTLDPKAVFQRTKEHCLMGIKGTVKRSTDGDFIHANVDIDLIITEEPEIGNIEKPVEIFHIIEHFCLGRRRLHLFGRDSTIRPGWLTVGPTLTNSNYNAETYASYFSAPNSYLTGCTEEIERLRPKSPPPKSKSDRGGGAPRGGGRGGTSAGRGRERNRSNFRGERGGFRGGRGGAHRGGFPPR

Kd: 1860 nM
Substance: full length H3K36me3 (from UniProt P68431 1-136) (natural protein)

Source: publication PMC6438714
